Assay [1] has as its target TLR9 expressed in HEK293 cells (UniProt Q9NR96). Nature of the assay: cell-based or functional assay.
In assay [2] the target is TLR7 expressed in HEK293 cells (UniProt Q9NYK1). Nature of the assay: cell-based or functional assay.
Sequence of TLR7 expressed in HEK293 cells (Q9NYK1 27-1049 limits assumed): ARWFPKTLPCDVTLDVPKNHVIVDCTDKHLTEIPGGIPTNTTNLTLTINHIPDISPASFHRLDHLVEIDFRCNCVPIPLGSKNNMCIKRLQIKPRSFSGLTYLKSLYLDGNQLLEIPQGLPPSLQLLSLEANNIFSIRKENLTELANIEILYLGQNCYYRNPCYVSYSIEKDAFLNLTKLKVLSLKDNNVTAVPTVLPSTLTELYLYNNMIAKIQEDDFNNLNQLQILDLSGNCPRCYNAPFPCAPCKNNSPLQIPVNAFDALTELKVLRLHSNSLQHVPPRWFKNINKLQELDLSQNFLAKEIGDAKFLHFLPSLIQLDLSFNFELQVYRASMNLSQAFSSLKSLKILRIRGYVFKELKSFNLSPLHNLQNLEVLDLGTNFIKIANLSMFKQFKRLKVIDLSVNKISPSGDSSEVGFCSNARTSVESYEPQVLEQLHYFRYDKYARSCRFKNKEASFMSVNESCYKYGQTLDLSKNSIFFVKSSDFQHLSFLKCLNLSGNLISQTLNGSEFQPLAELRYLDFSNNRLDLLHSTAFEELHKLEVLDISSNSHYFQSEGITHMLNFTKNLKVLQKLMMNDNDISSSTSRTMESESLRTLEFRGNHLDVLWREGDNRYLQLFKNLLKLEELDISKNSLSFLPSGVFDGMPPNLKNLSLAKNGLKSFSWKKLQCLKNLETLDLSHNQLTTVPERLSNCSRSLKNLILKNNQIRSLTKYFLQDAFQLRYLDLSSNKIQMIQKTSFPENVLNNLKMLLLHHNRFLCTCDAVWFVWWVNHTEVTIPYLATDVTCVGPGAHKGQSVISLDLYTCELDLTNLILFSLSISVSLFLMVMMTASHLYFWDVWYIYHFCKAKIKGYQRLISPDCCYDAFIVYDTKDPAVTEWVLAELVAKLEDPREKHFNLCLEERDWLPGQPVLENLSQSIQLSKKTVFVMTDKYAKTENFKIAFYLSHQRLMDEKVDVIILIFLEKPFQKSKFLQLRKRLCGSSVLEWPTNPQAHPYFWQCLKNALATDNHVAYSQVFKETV

Sequence of TLR9 expressed in HEK293 cells (Q9NR96 26-1032 limits assumed): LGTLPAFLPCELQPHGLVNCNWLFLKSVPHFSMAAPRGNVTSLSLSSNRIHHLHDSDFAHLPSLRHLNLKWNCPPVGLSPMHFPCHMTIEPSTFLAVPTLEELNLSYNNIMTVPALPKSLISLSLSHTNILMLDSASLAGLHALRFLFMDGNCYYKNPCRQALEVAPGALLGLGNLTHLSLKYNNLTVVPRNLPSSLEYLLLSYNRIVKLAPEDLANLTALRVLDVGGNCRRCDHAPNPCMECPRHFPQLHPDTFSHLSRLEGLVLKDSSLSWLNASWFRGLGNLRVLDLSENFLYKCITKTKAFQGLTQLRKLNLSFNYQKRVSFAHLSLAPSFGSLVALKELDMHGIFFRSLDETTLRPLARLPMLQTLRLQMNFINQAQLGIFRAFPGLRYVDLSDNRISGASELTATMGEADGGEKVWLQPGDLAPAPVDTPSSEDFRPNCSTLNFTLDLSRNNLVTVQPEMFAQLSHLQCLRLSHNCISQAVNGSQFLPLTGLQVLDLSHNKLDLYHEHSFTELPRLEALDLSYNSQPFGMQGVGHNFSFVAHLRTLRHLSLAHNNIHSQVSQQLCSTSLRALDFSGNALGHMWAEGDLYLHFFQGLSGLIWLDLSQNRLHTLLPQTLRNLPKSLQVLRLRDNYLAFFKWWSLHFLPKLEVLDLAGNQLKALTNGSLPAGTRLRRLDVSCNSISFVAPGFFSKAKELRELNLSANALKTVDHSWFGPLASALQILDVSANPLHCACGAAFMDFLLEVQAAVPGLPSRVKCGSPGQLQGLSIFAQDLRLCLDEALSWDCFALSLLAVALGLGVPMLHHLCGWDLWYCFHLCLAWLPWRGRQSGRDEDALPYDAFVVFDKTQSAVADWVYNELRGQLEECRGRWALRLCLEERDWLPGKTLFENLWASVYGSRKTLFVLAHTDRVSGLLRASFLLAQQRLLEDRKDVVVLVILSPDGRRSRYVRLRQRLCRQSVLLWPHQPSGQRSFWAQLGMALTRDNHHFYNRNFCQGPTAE

Substance “recombinant human Cpn10 with an N-terminal Alanine residue (from UniProt P61604 2-102)” registered an NF-κB activation (luciferase reporter) in HEK293 cells expressing TLR9, stimulated with CpG DNA (fold reduction) in assay [1] of 5 to 10. For the same substance, in assay [2], the NF-κB activation (luciferase reporter) in HEK293 cells expressing TLR7 and TLR4, stimulated with R848 (fold reduction) amounted to 2.
